Measurements: US20250051409A1 (NATIONAL INSTITUTE FOR BIOTECHNOLOGY IN THE NEGEV, published 2025)
Values belong to the binder of their own block, whether it stands above or below them.

Key:
[1] = target: T1, ATP synthase subunit 5A, inner mitochondria membrane protein (endogenous) (UniProt P25705 44-553, limits assumed); test: in situ proximity ligation assay
T1 construct: also called ATPsyn5a; ATP5a

[2] = target: T2, citrate synthase (CS), located in the matrix (endogenous) (UniProt O75390 28-466); test: in situ proximity ligation assay
T2 sequence (looked up): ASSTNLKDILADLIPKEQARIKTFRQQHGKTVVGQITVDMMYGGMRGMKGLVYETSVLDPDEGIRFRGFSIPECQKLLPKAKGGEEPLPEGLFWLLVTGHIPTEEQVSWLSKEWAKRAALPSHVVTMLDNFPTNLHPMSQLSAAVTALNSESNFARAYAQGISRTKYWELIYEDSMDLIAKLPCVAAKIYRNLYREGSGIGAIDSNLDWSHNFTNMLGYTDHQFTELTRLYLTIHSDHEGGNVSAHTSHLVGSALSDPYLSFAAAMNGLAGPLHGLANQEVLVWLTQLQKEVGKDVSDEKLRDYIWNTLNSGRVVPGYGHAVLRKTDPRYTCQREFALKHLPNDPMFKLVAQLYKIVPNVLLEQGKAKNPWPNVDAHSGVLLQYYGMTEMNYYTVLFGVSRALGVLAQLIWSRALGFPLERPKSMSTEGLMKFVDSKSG

T1 sequence (P25705 44-553 limits assumed): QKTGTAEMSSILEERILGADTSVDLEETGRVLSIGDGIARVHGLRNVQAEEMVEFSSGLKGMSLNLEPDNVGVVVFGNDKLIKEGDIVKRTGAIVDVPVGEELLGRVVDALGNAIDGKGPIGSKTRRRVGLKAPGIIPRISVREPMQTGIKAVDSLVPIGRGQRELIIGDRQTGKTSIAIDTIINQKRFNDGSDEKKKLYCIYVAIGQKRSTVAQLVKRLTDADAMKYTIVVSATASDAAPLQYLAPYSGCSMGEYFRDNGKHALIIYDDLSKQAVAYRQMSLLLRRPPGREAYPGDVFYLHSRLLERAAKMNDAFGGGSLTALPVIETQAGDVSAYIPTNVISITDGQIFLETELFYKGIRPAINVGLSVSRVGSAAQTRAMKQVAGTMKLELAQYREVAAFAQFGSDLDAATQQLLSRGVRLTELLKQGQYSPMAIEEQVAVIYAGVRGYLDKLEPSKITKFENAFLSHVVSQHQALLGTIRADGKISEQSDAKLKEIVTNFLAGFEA

binding result [1]: no binding
B1: SMAC/Diablo, endogenous, in A549 cells and A549 xenograft tumor sections (other, human, UniProt Q9NR28 56-239, looked up)
chain: AVPIAQKSEPHSLSSEALMRRAVSLVTDSTSTFLSQTTYALIEAITEYTKAVYTLTSLYRQYTSLLGKMNSEEEDEVWQVIIGARAEMTSKHQEYLKLETTWMTAVGLSEMAAEAAYQTGADQASITARNHIQLVKLQVEEVHQLSRKAETKLAEAQIEELRQKTQEEGEERAESEQEAYLRED
notes: Intracellular endogenous protein, detected with antibodies in the proximity ligation assay

binding result [2]: no binding
B2: PSD, endogenous, in A549 cells (enzyme)
chain: MMCQSEARQGPELRAAKWLHFPQLALRRRLGQLSCMSRPALKLRSWPLTVLYYLLPLGALRPLSRVGWRPVSRVALYKSVPTRLLSRAWGRLNQVELPHWLRRPVYSLYIWTFGVNMKEAAVEDLHHYRNLSEFFRRKLKPQARPVCGLHSVISPSDGRILNFGQVKNCEVEQVKGVTYSLESFLGPRTCTEDLPFPPAASCDSFKNQLVTREGNELYHCVIYLAPGDYHCFHSPTDWTVSHRRHFPGSLMSVNPGMARWIKELFCHNERVVLTGDWKHGFFSLTAVGATNVGSIRIYFDRDLHTNSPRHSKGSYNDFSVVGSLTR
notes: Intracellular endogenous protein, detected with antibodies in the proximity ligation assay; also called phosphatidylserine decarboxylase
